# Laboratory results: PMC4303301
# B1: EFI-501083; putative 5-amino-6-(5-phospho-D-ribitylamino) uracil phosphatase (Bacteroides thetaiotaomicron VPI-5482) (protein)
# chain: MIKNIVFDFGGVIVDIDRDKAVQAFIKLGLADADTRLDKYHQTGIFQELEEGKLSADEFRKQLGDLCGRELTMEETKQAWLGFFNEVDLRKLDYILGLRKSYHVYLLSNTNPFVMSWACSPEFSSEGKPLNDYCDKLYLSYQLGHTKPAPEIFDFMIKDSHVIPSETLFVDDGSSNIHIGKELGFETFQPENGADWRQELTVILNS
# Assays:
# purified protein [1] = substrate: O=P(O)(O)OC[C@@H](O)[C@@H](O)[C@@H](O)CO; assay: purified protein; settings: 50 mM Tris-HCl pH 7.5, 1 mM MgCl2, 25 °C
# purified protein [2] = substrate: O=P(O)(O)OC[C@H](O)[C@H](O)[C@H](O)CO; assay: purified protein; settings: 50 mM Tris-HCl pH 7.5, 1 mM MgCl2, 25 °C
protein,measurement,setting,value
B1,Km,purified protein [1],1080 ± 140 µM
same,kcat,purified protein [1],1.5 ± 0.1 s⁻¹
same,kcat/Km,purified protein [1],1400 M⁻¹ s⁻¹
same,Km,purified protein [2],1030 ± 180 µM
same,kcat,purified protein [2],1.8 ± 0.1 s⁻¹
same,kcat/Km,purified protein [2],1700 M⁻¹ s⁻¹
